Reference: publication PMC12164958

Tests used:
[1] = molecular target: UBR7 (construct of the Co-IP assays); assay: Co-IP (IP: Anti-Flag, blot Anti-HA), band intensity; conditions: parent: 1.00
[2] = molecular target: UBR7 (construct of the Co-IP assays); assay: Co-IP (IP: Anti-Flag), quantified band intensity, bar chart of three replicates; conditions: parent: est. 1.0; read off a plot
MBP-tagged UBR7 [3] = assay: MBP pull-down (blot Anti-His), band intensity; conditions: parent: 1.00
MBP-tagged UBR7 [4] = assay: MBP pull-down, quantified band intensity, bar chart of three replicates; conditions: parent: est. 1.0; read off a plot
UBR7-nLuc = assay: LCI assay (luciferase complementation imaging) in N. benthamiana leaves; conditions: Luminescence signals were recorded at 48 hpi; parent: est. 1.0; read off a plot

Substance	ratio to parent [1]	ratio to parent [2]	ratio to parent (MBP-tagged UBR7 [3])	ratio to parent (MBP-tagged UBR7 [4])	ratio to parent (UBR7-nLuc)
AL7-3×Flag S174A	0.55	0.6	–	–	–
AL7-3×Flag S174D	1.63	1.9	–	–	–
His-tagged AL7 S174A	–	–	0.95	0.72	–
His-tagged AL7 S174D	–	–	3.18	3.1	–
cLuc-AL7 S174A	–	–	–	–	0.98
cLuc-AL7 S174D	–	–	–	–	1.6
